The record followed here is US20110294227A1.

Holding throughout (assay): DELFIA Xpress PlGF sandwich immunoassay; tested substance at 5000 pg/mL
In assay [1] the target is PlGF-3 (non-glycosylated), purified recombinant placental growth factor isoform 3 (human) (UniProt P49763).
Assay [2] addresses PlGF-2 (glycosylated), purified recombinant placental growth factor isoform 2 (human).
The target in assay [3] is PlGF-1 (glycosylated), purified recombinant placental growth factor isoform 1 (human) (UniProt P49763).

PlGF-2 (glycosylated), purified recombinant placental growth factor isoform 2 (human), sequence (chain, as listed by the source limits assumed): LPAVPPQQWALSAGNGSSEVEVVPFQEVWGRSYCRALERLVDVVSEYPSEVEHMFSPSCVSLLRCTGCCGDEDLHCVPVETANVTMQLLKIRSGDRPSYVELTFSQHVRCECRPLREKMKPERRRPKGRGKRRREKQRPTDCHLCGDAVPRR

With “P1GF-1 antibody provided with the DELFIA Xpress kit (commercial DELFIA Xpress P1GF method, PerkinElmer)”, the values for the Observed cross-reactivity (%) in assay [1], in assay [2] and in assay [3] were 5%, 16% and 33%, respectively.
